The values that follow come from patent US20260193375A1 (NORMUNITY, published 2026).

Test [1] has as its target T1, hLY6K-mFc (human, UniProt Q17RY6 18-138).
T1 construct: not shown: mFc
T1 sequence: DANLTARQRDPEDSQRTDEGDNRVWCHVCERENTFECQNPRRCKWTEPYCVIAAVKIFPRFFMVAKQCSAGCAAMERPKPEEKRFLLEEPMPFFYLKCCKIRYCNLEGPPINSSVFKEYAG
The experiment in a line: SPR (Carterra LSA), mAb captured on anti-human IgG-Fc, antigen as analyte.

In test [2] the target is cyLY6K-mFc (cynomolgus monkey). Described as above.
Test [3] deals with T2, hLY6K-his (human, UniProt Q17RY6 18-138, limits assumed).
T2 construct: not shown: his tag
T2 sequence: T1 sequence
The description is as above.

Test [4] addresses T3, human LY6E (R&D Systems) (human, UniProt Q16553 21-101, limits assumed).
T3 construct: also called hLY6E
T3 sequence (looked up): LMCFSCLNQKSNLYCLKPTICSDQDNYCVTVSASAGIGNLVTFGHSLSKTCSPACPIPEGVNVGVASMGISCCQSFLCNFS
The experiment in a line: ELISA, coated antigen, IgG1 at 10 ug/ml. In general terms: In an ELISA, binding on a coated surface is turned into a signal by an enzyme label.

For test [5], the target named is T4, rat LY6K (R&D Systems) (rat).
T4 construct: also called rLY6K
The experiment in a line: ELISA, coated antigen, IgG1 at 10 ug/ml.

The target of test [6] is T5, cynomolgus monkey LY6K (R&D Systems) (cynomolgus monkey).
T5 construct: also called cyLY6K
Briefly: ELISA, coated antigen, IgG1 at 10 ug/ml.

For test [7], the target named is T6, Human LY6K (R&D Systems) (human, UniProt Q17RY6 18-138, limits assumed).
T6 construct: Bought from R&D Systems, coated on ELISA plates; also called hLY6K
T6 sequence: T1 sequence
Briefly: ELISA, coated antigen, IgG1 at 10 ug/ml.

In test [8] the target is T3, human LY6E (R&D Systems). The experiment in a line: ELISA, antigen coated on the plate, antibody as human IgG1, anti-human F(ab)2 HRPO.
The target of test [9] is T7, Ly6D.
T7 chain: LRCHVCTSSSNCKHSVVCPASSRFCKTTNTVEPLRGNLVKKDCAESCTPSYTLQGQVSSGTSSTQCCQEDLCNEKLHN
The description is as above.

For test [10], the target named is T8, Ly6H.
T8 chain: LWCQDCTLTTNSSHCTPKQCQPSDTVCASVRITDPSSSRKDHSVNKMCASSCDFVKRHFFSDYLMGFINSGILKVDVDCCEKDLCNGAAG
Described as above.

Test [11] concerns the target T9, recombinant human LY6K (Wuxi) (human, UniProt Q17RY6 18-138).
T9 construct: Limits of the construct not clearly stated; also called Human LY6K (Wuxi LY^KGLY138(1-38TR)_8His)
T9 sequence: T1 sequence
Briefly: capture ELISA (MSD): antibody coated as capture at 2 µg/mL, recombinant human LY6K titrated, sulfo-tagged polyclonal anti-hLY6K (AF6648) for detection; EC50 is the LY6K concentration.

The target of test [12] is T9, recombinant human LY6K (Wuxi). Briefly: ELISA, LY6K coated at 2 ug/mL, HRP-labelled mAb titrated.
The target of test [13] is T10, cell-surface anchored LY6K (human, UniProt Q17RY6 18-138).
T10 construct: the cell is named under assay; also called LY6K on target cells
T10 sequence: T1 sequence
Briefly: flow cytometry on target cells, MFI fitted in Prism. (In general: In flow cytometry, cells or beads pass a laser one at a time.)

Where a chain is given by its changes, count along the chain named.

B1: anti-LY6K antibody 3096 (antibody, V domains shown)
VH: QVQLVQSGAEVKKPGASVRVSCKASGYTFTGYYIHWVRQAPGQGLEWMGWINPNSGGTNYAQKFQDRVTMTRDTSISTVYMELSRLRSDDTAVFFCAREASNFWGQGTLVTVSS
VL: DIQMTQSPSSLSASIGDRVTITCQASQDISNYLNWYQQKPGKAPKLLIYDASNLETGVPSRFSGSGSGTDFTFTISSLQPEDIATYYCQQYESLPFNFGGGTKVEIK
On to B1, for which the Kd – broadly, the free concentration of one partner at which half of the binding sites on the other are occupied at equilibrium, for simple one-to-one binding – in test [1] stood at 1.36 nM; in test [2] it was 9.49 nM; in test [3], 63.8 nM. Moreover, the “% of maximum of commercial anti-LY6K mAb on human LY6K” value (from here on “% of maximum … on human LY6K”) in test [4] worked out at 1%; in test [5], 0%; in test [6], 37.2%; in test [7], 35%.

B2: anti-LY6K antibody 3035 (antibody, V domains shown)
VH: EVQLVESGGGLVQPGGSLKLSCAASGFTFSDSTLHWVRQASGKGLEWVGRIRSKANSYATAYAASVKGRFTISRDDSKNTAYLQMNSLKTEDTAVYYCHNWSYGYWGQGTLVTVSS
VL: QTVVTQEPSLTVSPGGTVTLTCASSTGAVTSYYYPNWFQQKPGQAPRTVIYSTTNKHSWTPARFSGSLLGGKAALTLSGVLPEDEADYYCLLFYGGAYVFGTGTKVTVL
In the case of B2, the binding result in test [8], in test [9] and in test [10] was “no binding (tested: 10 µg/ml)” throughout. The “% of maximum … on human LY6K” value came to 5.6% in test [4], 1% in test [5], 71.4% in test [6] and 65.2% in [7]. The results for the EC50 in test [11] and in test [12] were 0.168 µg/mL and 2.86 nM, respectively.

B3: anti-LY6K antibody 3728 (antibody, V domains shown)
VH: EVQLVESGGGLVKPGGSLRLSCAASGFTFSDVWMSWVRQAPGKGLEWVGRIKSKTDGGRIDYAAPVKGRFTISRDDSKNTLYLQMNSLKTEDTAVYYCTTVPYSDYWGQGTLVTVSS
VL: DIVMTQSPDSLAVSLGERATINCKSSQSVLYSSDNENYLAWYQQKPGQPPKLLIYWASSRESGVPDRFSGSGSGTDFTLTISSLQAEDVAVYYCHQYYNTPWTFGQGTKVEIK
Take B3: the Kd stood at 0.00734 nM in test [1], 0.0786 nM in test [2] and 4.96 nM in [3]. Further, the “% of maximum … on human LY6K” value in [4] was 1%; in [5], -1.3%; in test [6], 110%; in test [7], 96.4%.

B4: anti-LY6K antibody 3101 (antibody, V domains shown)
VH: EVQLVESGGGLVQPGRSLRLSCAASGFTFDDYAMHWVRQTPGKGLEWVSGITWKSGNIGYADSVKGRFTISRDNAKNSLYLQMNSLRAEDTALYYCAKDTEAGLDYWGQGTLVTVSS
VL: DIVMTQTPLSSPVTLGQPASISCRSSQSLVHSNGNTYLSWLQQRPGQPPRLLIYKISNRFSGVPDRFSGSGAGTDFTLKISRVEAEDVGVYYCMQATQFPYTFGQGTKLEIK
For B4, the values for the Kd in test [1] and in test [3] were 0.0264 nM and 1.83 nM, respectively. Further, the “% of maximum … on human LY6K” value was found to be 2.4% in test [4], 0.6% in test [5], 3% in [6] and 94.9% in [7]. Moreover, the EC50 (commonly the concentration at which the effect is half-maximal) in test [11] is 0.163 µg/mL.

B5: anti-LY6K antibody 3481 (antibody, V domains shown)
VH: B4 VH with P14S, T40A, S55D, G56V, N57T, R87G, E101S, A102D
VL: DIVMTQTPLSSPVTLGQPASISCRSSQSLVHSNGNTYLSWLQQRPGQPPRLLIYKISNRFSGVPDRFSGSGAGTDFTLKISRVETEDVGIYYCMQAIQFPYTFGQGTKLEIK
Consider B5, for which the Kd was 0.0157 nM in [1] and 1.19 nM in test [3]. Besides, the “% of maximum … on human LY6K” value in [4] amounted to 2.7%; in [5] it was 0.9%; in [6] it was 0.2%; in test [7], 99.4%. The values for the EC50 in test [13] and in test [12] were 2.84 nM and 2.08 nM, respectively.

B6: anti-LY6K antibody 3048 (antibody, V domains shown)
VH: B4 VH with T40A, N57T, T100S, E101R, A102T, T111A
VL: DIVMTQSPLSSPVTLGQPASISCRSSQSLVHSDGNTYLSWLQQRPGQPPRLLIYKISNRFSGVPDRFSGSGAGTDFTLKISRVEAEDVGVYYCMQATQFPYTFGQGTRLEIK
As for B6, the Kd in [1] came out at 0.0428 nM; in test [3], 4.7 nM. Besides, the “% of maximum … on human LY6K” value in test [4] worked out at 2.5%; in test [5] it was 1.5%; in [6], 0.1%; in [7], 81.2%. In addition, the EC50 in [13] was 3.33 nM; in test [12], 2.65 nM.

B7: anti-LY6K antibody 3705 (antibody, V domains shown)
VH: EVQLVESGGGLVHPGRSLRLSCAASGFTFDDYAMHWVRQAPGKGLEWVSGISWKNGKIDYADSVKGRFITSRDNAKNSLYLQMNSLRTEDTALYYCAKDRIEMTFDIWGQGTMVTVSS
VL: B5 VL with T7S, V30E, T85A, I90V, A96T, I97T, Y101L, Q105G, L109V
With B7, the figures for the Kd in test [1] and in [3] were 0.185 nM and 6.31 nM, respectively. Further, the “% of maximum … on human LY6K” value is 7.8% in test [4], 0% in test [5], 1.1% in test [6] and 102% in test [7]. The EC50 in test [13] worked out at 58.1 nM; in [12], 16.2 nM.

B8: anti-LY6K antibody 3741 (antibody, V domains shown)
VH: EVQLVESGGGLVKPGGSLRLSCAASGFTFSSYSMNWVRQAPGKGLEWVSSISSSSNYIYYVDSVKGRFTTSRDNAKNSLYLQMNSLRAEDTAVYYCARQEATGNNYYYYYMDVWGKGTTVTVSS
VL: DIQMTQSPSSLSASVGDRVTITCRASQSISNYLNWYQQNLGKAPKVLIYAASSLQSGVPSRFSGSGSGTDFTLTISSLQPEDFATYYCQQTYSTPITFGQGTRLEIK
Take B8: the binding result in test [8], in test [9] and in test [10] was “no binding (tested: 10 µg/ml)” each time. Further, the Kd in test [1] stood at 0.0505 nM; in test [2] it was 0.379 nM; in test [3] it was 5.66 nM. For the same molecule, the “% of maximum … on human LY6K” value is 3.1% in test [4], -1.6% in [5], 66.4% in [6] and 67.6% in [7]. For the same molecule, the EC50 in test [11] was 0.0568 µg/mL; in [12] it was 3.08 nM.

B9: anti-LY6K antibody 3785 (antibody, V domains shown)
VH: QVQLQQSGPGLVKPSQTLSLTCAISGDSVSSNSAAWNWIRQSPSRGLEWLGRTYFRSKWNNDYTLSVKNRITINPDTSKNHFSLQLNSVTPEDTAVYYCAGGGYCNRTYCPDVFDIWGQGTMVTVSS
VL: DIQMTQSPSSLSASVGDRVTFTCRSSQSISSYLNWYQQKPGKAPNLLIYVASTLQSGVPSRFSGSGSGTDFTLTISSLQPEDFATYYCQQSYSIPLTFGGGTKVEIK
For the molecule B9, the binding result in test [8], in [9] and in [10] was “no binding (tested: 10 µg/ml)” in each case. In addition, the figures for the Kd in test [1], in test [2] and in test [3] were 0.263 nM, 1.39 nM and 7.48 nM, respectively. The “% of maximum … on human LY6K” value in test [4] was determined as 4.5%; in test [5], 2.5%; in test [6], 57.2%; in test [7], 43.7%.
